From paper PMC7118906 (2020)

Target: GPI (Homo sapiens, UniProt P06744)
Experiment: MST

- Kd: 8.59 nM
B1: GPD2 (protein)
chain: ADCISEPVNREPPSREAQLLTLQNTSEFDILVIGGGATGSGCALDAVTRGLKTALVERDDFSSGTSSRSTKLIHGGVRYLQKAIMKLDIEQYRMVKEALHERANLLEIAPHLSAPLPIMLPVYKWWQLPYYWVGIKLYDLVAGSNCLKSSYVLSKSRALEHFPMLQKDKLVGAIVYYDGQHNDARMNLAIALTAARYGAATANYMEVVSLLKKTDPQTGKVRVSGARCKDVLTGQEFDVRAKCVINATGPFTDSVRKMDDKDAAAICQPSAGVHIVMPGYYSPESMGLLDPATSDGRVIFFLPWQKMTIAGTTDTPTDVTHHPIPSEEDINFILNEVRNYLSCDVEVRRGDVLAAWSGIRPLVTDPKSADTQSISRNHVVDISESGLITIAGGKWTTYRSMAEDTINAAVKTHNLKAGPSRTVGLFLQGGKDWSPTLYIRLVQDYGLESEVAQHLAATYGDKAFEVAKMASVTGKRWPIVGVRLVSEFPYIEAEVKYGIKEYACTAVDMISRRTRLAFLNVQAAEEALPRIVELMGRELNWDDYKKQEQLETARKFLYYEMGYKSRSEQLTDRSEISLLPSDIDRYKKRFHKFDADQKGFITIVDVQRVLESINVQMDENTLHEILNEVDLNKNGQVELNEFLQLMSAIQKGRVSGSRLAILMKTAEENLDRRVPIPVDRSCGGL
